Experimental data: publication PMC5033319

Experiment: recombinant expression in Sf9, not detailed
Conditions: glycan lost; control: initial domain III preparation, sites intact

EGFR domain III (EGFRD3): N328D and N420D
other: solubility: increases
